T1: HMGB1 (Rattus norvegicus, UniProt P63159)
T1 construct: made in house; host or cells: E. coli BL21 (DE3) pLysS
T1 sequence (P63159 1-215): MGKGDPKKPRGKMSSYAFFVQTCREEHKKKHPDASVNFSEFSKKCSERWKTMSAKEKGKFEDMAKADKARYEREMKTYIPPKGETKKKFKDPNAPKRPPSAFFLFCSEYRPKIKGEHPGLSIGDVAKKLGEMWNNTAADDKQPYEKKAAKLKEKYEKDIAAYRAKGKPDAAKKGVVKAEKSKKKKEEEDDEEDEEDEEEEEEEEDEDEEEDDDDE


Tests used:
[1] = tested on: Balb/C mice subjected to CLP sepsis; experiment: Animal model of lethal sepsis (CLP), animal survival; type: in vivo, mouse; conditions: for protection against lethal sepsis: i.p., 2 h post onset
Experimental: This study was conducted in accordance with policies of the NIH Guide for the Care and Use of Laboratory Animals and approved by the IACUC of the Feinstein Institute for Medical Research, Manhasset, New York, USA. To evaluate the role of TN in lethal sepsis, Balb/C mice (male, 7-8 weeks, 20-25 g) were subjected to lethal endotoxemia or sepsis induced by cecal ligation and puncture (CLP) as previously described. Briefly, the cecum of Balb/C mice was ligated at 5.0 mm from the cecal tip, and then punctured once with a 22-gauge needle. At 30 min post CLP, all animals were given a subcutaneous dosing of imipenem/cilastatin (0.5 mg/mouse) (Primaxin, Merck & Co., Inc., West Point, Pa.), and resuscitation with normal sterile saline solution (20 ml/kg). Recombinant TN or anti-TN polyclonal or monoclonal IgGs were intraperitoneally administered into endotoxemic or septic mice at indicated doses and time points, and animal survival rates were monitored for up to two weeks. To evaluate the role of TN in lethal sepsis, a few breeding pairs of the heterozygous TN (also called “CLCE3B”)-KO mice were obtained from the Jackson Laboratory (Stock No. 027554, Bar Harbor, ME, USA), and bred to produce homozygous TN KO as well as wild-type littermates. Age- and sex-matched wild-type (WT) or TN knockout (KO) C57/B6 mice were then used to induce CLP sepsis via identical procedures, and animal survival rates were compared for more than two weeks.

[2] = tested on: Balb/C mice subjected to lethal endotoxemia; experiment: Animal model of lethal endotoxemia (LPS), animal survival; type: in vivo, mouse; conditions: i.p., 2 h post onset
Experimental: This study was conducted in accordance with policies of the NIH Guide for the Care and Use of Laboratory Animals and approved by the IACUC of the Feinstein Institute for Medical Research, Manhasset, New York, USA. To evaluate the role of TN in lethal sepsis, Balb/C mice (male, 7-8 weeks, 20-25 g) were subjected to lethal endotoxemia or sepsis induced by cecal ligation and puncture (CLP) as previously described. Briefly, the cecum of Balb/C mice was ligated at 5.0 mm from the cecal tip, and then punctured once with a 22-gauge needle. At 30 min post CLP, all animals were given a subcutaneous dosing of imipenem/cilastatin (0.5 mg/mouse) (Primaxin, Merck & Co., Inc., West Point, Pa.), and resuscitation with normal sterile saline solution (20 ml/kg). Recombinant TN or anti-TN polyclonal or monoclonal IgGs were intraperitoneally administered into endotoxemic or septic mice at indicated doses and time points, and animal survival rates were monitored for up to two weeks. To evaluate the role of TN in lethal sepsis, a few breeding pairs of the heterozygous TN (also called “CLCE3B”)-KO mice were obtained from the Jackson Laboratory (Stock No. 027554, Bar Harbor, ME, USA), and bred to produce homozygous TN KO as well as wild-type littermates. […]

primary human monocytes = experiment: Cytokine Antibody Array of human monocyte cultures; type: cell-based; conditions: TN 10 μg/ml, 16 h
Experimental: (§1) Primary peritoneal macrophages were isolated from young male Balb/c (7-8 wks, 20-25 g) at 3 days after intraperitoneal injection of 2 ml thioglycollate broth (4%) as previously described. Briefly, mice were sacrificed by CO2 asphyxiation, and the abdomen region was immediately cleaned with 70% ethanol before making a small excision to expose the abdominal wall, and to insert a catheter into viscera-free pocket to wash out peritoneal macrophages with sucrose solution (11.6%, 7.0 ml). Human blood was purchased from the New York Blood Center (Long Island City, NY, USA), and human peripheral blood mononuclear cells (HuPBMCs) were isolated by density gradient centrifugation through Ficoll (Ficoll-Paque PLUS, Pharmacia, Piscataway, NJ, USA) as previously described. Murine macrophages and human monocytes (HuBPMCs) were cultured in DMEM supplemented with 1% penicillin/streptomycin and 10% FBS or 10% human serum. When reaching 70-80% confluence, adherent cells were gently washed with, and immediately cultured in, OPTI-MEM I before stimulating with crude LPS, purified SAA, HMGB1, in the absence or presence of human TN. The intracellular and extracellular levels of HMGB1, TN, or various other cytokines/chemokines were respectively determined by Western blotting analysis, and Cytokine Antibody Arrays as previous described. […]

[3] = tested on: Murine macrophage-like RAW 264.7 cells; experiment: Cellular HMGB1 and TN uptake; type: cell-based, mouse; conditions: TN at physiological concentrations, 2 h
Experimental: Highly purified recombinant HMGB1 and TN protein were labeled with either Alexa Fluor 555 or Alexa Fluor 488 using respective labeling kit (Cat. # A30007 or Cat. # A30006, Thermo Fisher Scientific) according to the manufacturer's instructions. Murine macrophage-like RAW 264.7 cells on cover slips were incubated with unlabeled or Alexa Fluor 555-labeled HMGB1 in the absence or presence of unlabeled or Alexa Fluor 488-labeled TN at 37° C. for 2 h. An endocytosis inhibitor, Dynasore (8.0 μM), or mAb8 (60 μg/ml) were added 30 min before the addition of HMGB1 or TN. Following extensive washings with 1×PBS, cells were fixed with 4% formalin for 20 min at room temperature and mounted on the slide using Vectashield Mounting Medium for Fluorescence with DAPI (Vector Laboratories, Inc., Cat. # H-1200) for nuclei staining (blue). Endocytic uptake of Alexa Fluor 555-labeled HMGB1 (red) or Alexa Fluor 488-labeled TN (green) was visualized via Carl Zeiss fluorescence microscope. To quantitate cellular uptake of HMGB1 and TN, macrophage cultures were incubated with recombinant HMGB1 and TN either individually, or in combination, at 37° C. for 2 h. Following extensive washing, cellular levels of HMGB1 and TN were measured by Western blotting analysis with reference to a house-keeping protein, β-actin.

[4] = tested on: murine peritoneal macrophages; experiment: ASC release in macrophage cultures (Western blotting); type: cell-based, mouse; conditions: 16 h
Experimental: (§2) Primary peritoneal macrophages were isolated from young male Balb/c (7-8 wks, 20-25 g) at 3 days after intraperitoneal injection of 2 ml thioglycollate broth (4%) as previously described. Briefly, mice were sacrificed by CO2 asphyxiation, and the abdomen region was immediately cleaned with 70% ethanol before making a small excision to expose the abdominal wall, and to insert a catheter into viscera-free pocket to wash out peritoneal macrophages with sucrose solution (11.6%, 7.0 ml). […] The intracellular and extracellular levels of HMGB1, TN, or various other cytokines/chemokines were respectively determined by Western blotting analysis, and Cytokine Antibody Arrays as previous described.
(§3) The levels of TN in human or murine serum were determined by Western blotting analysis using commercial rabbit mAb against the C-terminus of human TN (Abcam) or our home-made murine mAbs (mAb8) against recombinant human TN. Similarly, the cellular and extracellular levels of TN and HMGB1 in murine macrophage and human monocyte cultures were determined by Western blotting analysis using rabbit polyclonal or monoclonal antibodies. […] The relative band intensity was quantified using the UN-SCAN-IT Gel Analysis Software Version 7.1 (Silk Scientific Inc., Orem, UT, USA).

HMGB1 = molecular target: T1, HMGB1; experiment: OpenSPR assay of TN/HMGB1 interaction; type: binding; conditions: TN or HMGB1 conjugated to the sensor chip
Source text: The cDNA encoding for rat HMGB1 was cloned onto a pCAL-n vector, and the recombinant CBP-HMGB1 (rHMGB1) was expressed in E. coli BL21 (DE3) pLysS cells as previously described. Recombinant HMGB1 containing a ˜3 kDa calmodulin-binding peptide tag (CBP-HMGB1 fusion protein, 33 kDa) was expressed in E. coli, and purified to remove contaminating endotoxin by Triton X-114 extraction as previously described. Recombinant human TN corresponding to residue 22-202 amino acid (without the 21-amino acid leader signal sequence) with a C-terminal histidine tag were expressed in E. coli BL21 (DE3) pLysS cells and purified by histidine-affinity and Triton X-114 extraction to remove contaminating endotoxins. Recombinant TN and HMGB1 proteins were tested for LPS content by the chromogenic Limulus amebocyte lysate assay (Endochrome; Charles River), and the endotoxin content was less than 0.01 U per microgram of recombinant proteins.
We employed the Nicoya Lifesciences gold-nanoparticle-based Open Surface Plasmon Resonance (OpenSPR) technology (Kitchener, ON, Canada) to characterize protein-protein interactions following the manufacturer's instructions. […] The response units were recorded over time, and the binding affinity was estimated as the equilibrium dissociation constant KD using the Trace Drawer Kinetic Data Analysis v.1.6.1. […]

macrophage cultures = experiment: Cytokine Antibody Array of macrophage cultures; type: cell-based, mouse; conditions: even at 20 μg/ml
Experimental: as §1

[5] = tested on: Balb/C mice subjected to CLP sepsis; experiment: Sepsis-induced tissue injury (lung histology, serum liver enzymes) after CLP; type: in vivo, mouse; conditions: TN supplementation, 2 and 24 h post CLP
human blood monocytes = experiment: LPS- or SAA-induced HMGB1 release in human monocytes; type: cell-based; conditions: 16 h
Experimental: as §2, §3

[6] = tested on: murine peritoneal macrophages; experiment: LPS- or SAA-induced HMGB1 release in murine macrophages; type: cell-based, mouse; conditions: 16 h
Experimental: as §2, §3

Row | Molecule | protection against lethal sepsis [1] | protection against lethal endotoxemia [2] | protection in sepsis at sub-physiological doses ([1]; 0.1 mg/kg) | protection in sepsis at super-physiological doses ([1]; 1.0 mg/kg) | release of ENA-78 (CXCL5, LIX) (primary human monocytes) | release of GRO (CXCL1 or KC) (primary human monocytes) | HMGB1 cellular uptake [3] | ASC release, added individually [4] | ASC release, co-addition with HMGB1 [4] | estimated equilibrium disassociation constant (KD) between TN and HMGB1 (HMGB1) [nM] | LPS-, SAA-, or HMGB1-induced release of other cytokines and chemokines (macrophage cultures) | sepsis-induced injury in the liver ([5]; ALT and AST at 28 h) | sepsis-induced injury in the lung ([5]; analysis at 28 h) | LPS- and SAA-induced HMGB1 release (human blood monocytes) | LPS- and SAA-induced HMGB1 release [6]
1 | human TN: eukaryote-derived recombinant human tetranectin expressed in HEK293 kidney cells (ACROBiosystems) (protein, UniProt P05452 22-202, looked up) Tetranectin: EPPTQKPKKIVNAKKDVVNTKMFEELKSRLDTLAQEVALLKEQQALQTVCLKGTKVHMKCFLAFTQTKTFHEASEDCISRGGTLGTPQTGSENDALYEYLRQSVGNEAEIWLGLNDMAAEGTWVDMTGARIAYKNWETEITAQPDGGKTENCAVLSGAANGKWFDKRCRDQLPYICQFGIV | reproducible and dose-dependent protection | reproducible and dose-dependent protection |  |  |  |  |  |  |  |  |  |  |  |  | 
2 | murine TN: prokaryotes-derived (E. coli) recombinant murine tetranectin (protein) ESPTPKAKKAANAKKDLVSSKMFEELKNRMDVLAQEVALLKEKQALQTVCLKGTKVNLKCLLAFTQPKTFHEASEDCISQGGTLGTPQSELENEALFEYARHSVGNDANIWLGLNDMAAEGAWVDMTGGLLAYKNWETEITTQPDGGKAENCAALSGAANGKWFDKRCRDQLPYICQFAIV | reproducible and dose-dependent protection | reproducible and dose-dependent protection | conferred reproducible protection | not associated with any protective effect |  |  |  |  |  |  |  |  |  |  | 
3 | tetranectin (protein, UniProt P05452 22-202, looked up) Tetranectin: EPPTQKPKKIVNAKKDVVNTKMFEELKSRLDTLAQEVALLKEQQALQTVCLKGTKVHMKCFLAFTQTKTFHEASEDCISRGGTLGTPQTGSENDALYEYLRQSVGNEAEIWLGLNDMAAEGTWVDMTGARIAYKNWETEITAQPDGGKTENCAVLSGAANGKWFDKRCRDQLPYICQFGIV |  |  |  |  | reproducibly and specifically induced the release | reproducibly and specifically induced the release | markedly enhanced | weakly induced | synergistic enhancement | 1.21 to 2.88 | did not inhibit | marked attenuation | marked attenuation | dose-dependently inhibited | dose-dependently inhibited

From patent US12497446B2, “Tetranectin-targeting monoclonal antibodies to fight against lethal sepsis and other pathologies” (The Feinstein Institutes For Medical Research, priority 2019, dated 2025)
